The source of these data is patent US20250213694A1 (SHANGHAI SIMNOVA BIOTECHNOLOGY, published 2025).

In the assay the target is T1, human GPRC5D on GPRC5D-overexpressing cells (human, UniProt Q9NZD1 1-345).
T1 construct: whole, on cells; also called also tested on NCI-H929 cells
Put plainly: cell-based ELISA and FACS on human GPRC5D-overexpressing cells and NCI-H929 cells; chimeric human IgG1 format. A general note: An ELISA detects its analyte on a solid surface through an enzyme-linked reagent.

T1 sequence (Q9NZD1 whole entry): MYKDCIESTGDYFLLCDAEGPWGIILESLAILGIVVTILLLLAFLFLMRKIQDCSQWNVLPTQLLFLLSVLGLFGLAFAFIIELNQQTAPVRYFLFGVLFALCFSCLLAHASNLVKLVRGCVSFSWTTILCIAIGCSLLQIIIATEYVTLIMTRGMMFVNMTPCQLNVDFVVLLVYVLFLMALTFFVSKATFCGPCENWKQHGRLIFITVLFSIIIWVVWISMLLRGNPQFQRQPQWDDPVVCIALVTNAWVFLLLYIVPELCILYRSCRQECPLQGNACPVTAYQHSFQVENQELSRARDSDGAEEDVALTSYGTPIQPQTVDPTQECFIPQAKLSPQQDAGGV

B1: GPRC5D-mab06 (antibody, V domains shown)
VH: QVQLKQSGPGLVQPSQSLSITCTVSGFSLTSYGVNWIRQSPGKGLEWLGVIWSGGNTDYNAAFRSRLSISKDNSKSQVFFKMNSLQADDTAIYYCARGQLGRPYWYFDVWGTGTSVTVSS
VL: DIVMTQSHKFMSTSVGDRVSITCKASQDVRTAVAWYQQKPGQSPKLLIYWASTRHTGVPDRFTGSRSGTDYTLTISSVQAEDLALYYCQQHYSTPLTFGAGTKLELK
notes: Murine variable regions; Screened as a chimeric antibody containing the constant region of human IgG1
B1: the binding result is listed as “binds”.

B2: GPRC5D-mab03 (antibody, V domains shown)
VH: QAYLQQSGAELVRPGASVKMSCKASGYTFTSYNMNWVKQTPRQGLEWIGAIYPGNGDTSYNQKFKGKATLTVDKSSSTAYMQLSSLTSEDSAVYFCARVRLRYAMDYWGQGTSVTVSS
VL: DIVMTQSQKFMSTTVGDRVTITCKASQNVGTAVAWYQQKPGQSPKLLISSASNRYTGVPERFTGSGSGTDFTLTIRNMQSEDLADYFCQQYSSYPWTFGGGTELEIK
notes: as for B1
In the case of B2, the binding result is on record as “binds”.
